Assay results published in the RNAGym collection of RNA variant scans (doi:10.7554/elife.80360).

B1: CPEB3 Ribozyme (parent)
chain: GGGGGCCACAGCAGAAGCGUUCACGUCGCGGCCCCUGUCAGAUUCUGGUGAAUCUGCGAAUUCUGCUGU

Variants of: B1
Test: self-cleavage, relative activity (ratio to wild type); higher = more cleavage; co-transcriptional

Variant	self-cleavage
GGGGGCCACAGCAGAAGCGUUCACAUCGCGGCCCCUGUCAGAUUCCGGUGAAUCUGCGAAUUCUGCUGU [G25A U46C]	0.216
GGGGGCCACAGCAGAAGCGUUCACCUCGCGGCACCUGUCAGAUUCUGGUGAAUCUGCGAAUUCUGCUGU [G25C C33A]	0.307
GGGGGCCACAGCAGAAGCGUUCACCUCGCGGCUCCUGUCAGAUUCUGGUGAAUCUGCGAAUUCUGCUGU [G25C C33U]	0.258
GGGGGCCACAGCAGAAGCGUUCACCUCGCGGCCGCUGUCAGAUUCUGGUGAAUCUGCGAAUUCUGCUGU [G25C C34G]	0.14
GGGGGCCACAGCAGAAGCGUUCACCUCGCGGCCACUGUCAGAUUCUGGUGAAUCUGCGAAUUCUGCUGU [G25C C34A]	0.197
GGGGGCCACAGCAGAAGCGUUCACAUCGCGGCCCCUGUCAGAUUCUGGUGAAUCCGCGAAUUCUGCUGU [G25A U55C]	0.152
GGGGGCCACAGCAGAAGCGUUCACAUCGCGGCCCCUGUCAGAUUCUGGUGAAUCGGCGAAUUCUGCUGU [G25A U55G]	0.235
GGGGGCCACAGCAGAAGCGUUCACCUCGCGGCCCCUGUCAGAUUCUGGUGAAUCUGCGACUUCUGCUGU [G25C A60C]	0.149
GGGGGCCACAGCAGAAGCGUUCACCUCGCGGCCCCUGUCAGAUUCUGGUGAAUCUGCGAGUUCUGCUGU [G25C A60G]	0.207
GGGGGCCACAGCAGAAGCGUUCACCUCGCUGCCCCUGUCAGAUUCUGGUGAAUCUGCGAAUUCUGCUGU [G25C G30U]	0.193
GGGGGCCACAGCAGAAGCGUUCACCUCGCAGCCCCUGUCAGAUUCUGGUGAAUCUGCGAAUUCUGCUGU [G25C G30A]	0.25
GGGGGCCACAGCAGAAGCGUUCACCUCGCCGCCCCUGUCAGAUUCUGGUGAAUCUGCGAAUUCUGCUGU [G25C G30C]	0.171
GGGGGCCACAGCAGAAGCGUUCACCUCACGGCCCCUGUCAGAUUCUGGUGAAUCUGCGAAUUCUGCUGU [G25C G28A]	0.14
GGGGGCCACAGCAGAAGCGUUCACCUCUCGGCCCCUGUCAGAUUCUGGUGAAUCUGCGAAUUCUGCUGU [G25C G28U]	0.16
GGGGGCCACAGCAGAAGCGUUCACCUCGCGGCCCCUGUCAGAUUUUGGUGAAUCUGCGAAUUCUGCUGU [G25C C45U]	0.141
GGGGGCCACAGCAGAAGCGUUCACCUCGCGGCCCCUGUCAGAUUGUGGUGAAUCUGCGAAUUCUGCUGU [G25C C45G]	0.147
GGGGGCCACAGCAGAAGCGUUCACCUCGCGGCCCCUCUCAGAUUCUGGUGAAUCUGCGAAUUCUGCUGU [G25C G37C]	0.156
GGGGGCCACAGCAGAAGCGUUCACCUCGCGGCCCCUAUCAGAUUCUGGUGAAUCUGCGAAUUCUGCUGU [G25C G37A]	0.171
GGGGGCCACAGCAGAAGCGUUCACCUCGCGGCCCCUGUCAGGUUCUGGUGAAUCUGCGAAUUCUGCUGU [G25C A42G]	0.194
GGGGGCCACAGCAGAAGCGUUCACCUCGCGGCCCCUGUCAGUUUCUGGUGAAUCUGCGAAUUCUGCUGU [G25C A42U]	0.203

Variant	self-cleavage
GGGGGCCACAGCAGAAGCGUUCACCUCGCGGCCCCUGUCAGCUUCUGGUGAAUCUGCGAAUUCUGCUGU [G25C A42C]	0.187
GGGGGCCACAGCAGAAGCGUUCACCUCGCGGCCCAUGUCAGAUUCUGGUGAAUCUGCGAAUUCUGCUGU [G25C C35A]	0.141
GGGGGCCACAGCAGAAGCGUUCACCUCGCGGCCCUUGUCAGAUUCUGGUGAAUCUGCGAAUUCUGCUGU [G25C C35U]	0.177
GGGGGCCACAGCAGAAGCGUUCACCUCGCGGCCCCUGUCAGAUUCUGGUGAUUCUGCGAAUUCUGCUGU [G25C A52U]	0.158
GGGGGCCACAGCAGAAGCGUUCACCUCGCGGCCCCUGUCAGAUUCUGGUGACUCUGCGAAUUCUGCUGU [G25C A52C]	0.182
GGGGGCCACAGCAGAAGCGUUCACCUCGCGGCCCCUGUCAGAUUCUGGUGAGUCUGCGAAUUCUGCUGU [G25C A52G]	0.174
GGGGGCCACAGCAGAAGCGUUCACCUCGCGGCCCCUGUCAGAUUCUGUUGAAUCUGCGAAUUCUGCUGU [G25C G48U]	0.186
GGGGGCCACAGCAGAAGCGUUCACCUCGCGGCCCCUGUCAGAUUCUGAUGAAUCUGCGAAUUCUGCUGU [G25C G48A]	0.16
GGGGGCCACAGCAGAAGCGUUCACCUCGGGGCCCCUGUCAGAUUCUGGUGAAUCUGCGAAUUCUGCUGU [G25C C29G]	0.148
GGGGGCCACAGCAGAAGCGUUCACCUCGUGGCCCCUGUCAGAUUCUGGUGAAUCUGCGAAUUCUGCUGU [G25C C29U]	0.126
GGGGGCCACAGCAGAAGCGUUCACCUCGCGGCCCCUGUCAGAUUCUUGUGAAUCUGCGAAUUCUGCUGU [G25C G47U]	0.213
GGGGGCCACAGCAGAAGCGUUCACCUCGCGGCCCCUGUCAGAUUCUAGUGAAUCUGCGAAUUCUGCUGU [G25C G47A]	0.102
GGGGGCCACAGCAGAAGCGUUCACCUCGCGGCCCCUGUCAGAUUCUCGUGAAUCUGCGAAUUCUGCUGU [G25C G47C]	0.142
GGGGGCCACAGCAGAAGCGUUCACCUCGCGGCCCCUGUCUGAUUCUGGUGAAUCUGCGAAUUCUGCUGU [G25C A40U]	0.176
GGGGGCCACAGCAGAAGCGUUCACCUCGCGGCCCCUGUCCGAUUCUGGUGAAUCUGCGAAUUCUGCUGU [G25C A40C]	0.173
GGGGGCCACAGCAGAAGCGUUCACCUCGCGGCCCCUGUCGGAUUCUGGUGAAUCUGCGAAUUCUGCUGU [G25C A40G]	0.158
GGGGGCCACAGCAGAAGCGUUCACCUCGCGGACCCUGUCAGAUUCUGGUGAAUCUGCGAAUUCUGCUGU [G25C C32A]	0.147
GGGGGCCACAGCAGAAGCGUUCACCUCGCGGGCCCUGUCAGAUUCUGGUGAAUCUGCGAAUUCUGCUGU [G25C C32G]	0.173
GGGGGCCACAGCAGAAGCGUUCACCUCGCGGCCCCUGUCAAAUUCUGGUGAAUCUGCGAAUUCUGCUGU [G25C G41A]	0.123
